Here are results for two substances from article PMC5477534.

This data set relates to lac repressor (LacI). Put plainly: SFM imaging. The note with it: streptavidin bound, SFM: 7.5 nM LacI, about 30 min incubation, 100 uM NTPs for 60 s, EDTA quench, poly-L-ornithine-coated mica, buffer, salt, pH and temperature not in the ….

Consider O2-400-O1 SFM template, for which the binding signal (% looped molecules) is 14 (LacI, with transcription (NTP), downstream-end biotin) and 12 (LacI, without transcription, downstream-end biotin).

As to Os-400-O1 SFM template, the binding signal (% looped molecules) by setting is: (7.5 nM LacI, with transcription (NTP), 3'/downstream-end biotin) 50; (7.5 nM LacI, without transcription, 3'/downstream-end biotin) 34. In addition, where the note is “7.5 nM LacI, without NTP (drops about 20% with transcription), 3'/downstream-end biotin”, the binding signal (% operator occupancy) is more than 90.
